Source: publication PMC7686362, “Recent evolution of a TET-controlled and DPPA3/STELLA-driven pathway of passive DNA demethylation in mammals” (Nature Communications, 2020)

How the values were obtained:
[1] = target: endogenous UHRF1-GFP (Uhrf1 locus tagged with GFP in mouse ESCs) (mouse (endogenous in J1 ESCs)) (UniProt Q8VDF2)
[2] = target: T1, mUHRF1 C-terminally tagged with GFP- and 6xHis-tag (mouse, UniProt Q8VDF2 1-782); assay: MST; 200 nM UHRF1-GFP-6xHis mixed with 0.15 nM to 5 µM GST-DPPA3, 30 min on ice; Monolith NT.115, 80% LED and 80% MST power; conditions: both partners purified
T1 construct: UHRF1, mouse (mUHRF1); also called UHRF1-eGFP; recombinant UHRF1-GFP; source: HEK 293T cells, purified (Ni-NTA beads); not shown: GFP, C-terminal, kept
T1 sequence (looked up): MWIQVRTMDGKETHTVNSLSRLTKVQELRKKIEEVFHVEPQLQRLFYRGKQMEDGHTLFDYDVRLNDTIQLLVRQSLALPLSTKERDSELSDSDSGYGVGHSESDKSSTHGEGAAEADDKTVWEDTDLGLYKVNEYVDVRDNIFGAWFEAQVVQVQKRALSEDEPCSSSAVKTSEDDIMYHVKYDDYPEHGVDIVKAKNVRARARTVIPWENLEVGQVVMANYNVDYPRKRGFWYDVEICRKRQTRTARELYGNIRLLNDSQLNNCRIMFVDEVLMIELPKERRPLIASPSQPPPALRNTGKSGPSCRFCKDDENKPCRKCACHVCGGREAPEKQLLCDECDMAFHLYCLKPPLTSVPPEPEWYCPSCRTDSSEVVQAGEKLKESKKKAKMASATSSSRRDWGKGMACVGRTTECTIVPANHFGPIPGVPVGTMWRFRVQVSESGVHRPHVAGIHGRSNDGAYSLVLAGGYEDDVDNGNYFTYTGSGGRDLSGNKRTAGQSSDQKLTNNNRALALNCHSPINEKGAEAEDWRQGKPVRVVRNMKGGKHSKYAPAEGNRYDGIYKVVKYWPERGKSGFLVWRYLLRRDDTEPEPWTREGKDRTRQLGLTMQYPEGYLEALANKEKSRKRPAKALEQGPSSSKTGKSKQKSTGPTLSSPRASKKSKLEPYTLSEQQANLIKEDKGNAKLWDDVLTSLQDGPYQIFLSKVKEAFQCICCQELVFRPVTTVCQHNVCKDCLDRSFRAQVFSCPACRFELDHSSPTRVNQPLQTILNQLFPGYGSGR

## DPPA3-KRR-mScarlet (K85E/R85E/R87E as printed) (from UniProt Q8QZY3 1-150) (natural protein)
[1]
  mobile fraction of UHRF1-GFP by RICS in live ESCs expressing DPPA3-KRR: 32.4%

B1: GST-mDPPA3 wild-type (natural protein, mouse, UniProt Q8QZY3 1-150, looked up)
chain: MEEPSEKVDPMKDPETPQKKDEEDALDDTDVLQPETLVKVMKKLTLNPGVKRSARRRSLRNRIAAVPVENKSEKIRREVQSAFPKRRVRTLLSVLKDPIAKMRRLVRIEQRQKRLEGNEFERDSEPFRCLCTFCHYQRWDPSENAKIGKN
notes: DPPA3, mouse, fragment corresponding to the full-length protein amplified from mouse DPPA3 cDNA, in pGEX4T-3; also called GST-DPPA3 WT; D3^WT; source: E. coli BL21-CodonPlus, purified (Glutathione Sepharose, PD10 desalting)
[2]
  Kd: 440 nM
